Where only a bound is given, the exact number is not on record here.

The target in this assay is Human recombinant prethrombin-2 (human). As to the kind of experiment: SPR; Biacore S200; prethrombin-2 amine-coupled (NHS/EDC) to a CM5 chip, 1633 RU; fragment-1 injected, two-fold dilutions 7.4-119 uM, single-cycle kinetics, 35 ul/min; 20 mM HEPES, 150 mM NaCl, 5 mM CaCl2, pH 7.4; referenced to an unmodified CM5 surface. The following applies: both partners purified. On the technique in general: Surface plasmon resonance follows binding to a sensor surface in real time, without labels.

B1: fragment-1 of prothrombin (domain or fragment)
chain: ANTFLEEVRKGNLERECVEETCSYEEAFEALESSTATDVFWAKYTACETARTPRDKLAACLEGNCAEGLGTNYRGHVNITRSGIECQLWRSRYPHKPEINSTTHPGADLQENFCRNPDSSTTGPWCYTTDPTVRRQECSIPVCGQDQVTVAMTPR
modifications: purchased fragment-1 (presumably plasma-derived): Gla domain gamma-carboxyglutamates, N-glycans and disulfides expected; 5 mM CaCl2 in assay. Mature numbering + 43 = precursor; ends at cleavage site …
In the case of B1, the Kd was over 200 µM.

By Kd is commonly meant the concentration at which binding is half-saturated.

Values taken from paper PMC5811608, “Structure of prothrombin in the closed form reveals new details on the mechanism of activation” (Scientific Reports, 2018).
